Laboratory results from paper PMC6789141, “ZC3H18 specifically binds and activates the BRCA1 promoter to facilitate homologous recombination in ovarian cancer”.

Molecular target: T1, SFB-ZC3H18 (human, UniProt Q86VM9 1-953)
T1 sequence: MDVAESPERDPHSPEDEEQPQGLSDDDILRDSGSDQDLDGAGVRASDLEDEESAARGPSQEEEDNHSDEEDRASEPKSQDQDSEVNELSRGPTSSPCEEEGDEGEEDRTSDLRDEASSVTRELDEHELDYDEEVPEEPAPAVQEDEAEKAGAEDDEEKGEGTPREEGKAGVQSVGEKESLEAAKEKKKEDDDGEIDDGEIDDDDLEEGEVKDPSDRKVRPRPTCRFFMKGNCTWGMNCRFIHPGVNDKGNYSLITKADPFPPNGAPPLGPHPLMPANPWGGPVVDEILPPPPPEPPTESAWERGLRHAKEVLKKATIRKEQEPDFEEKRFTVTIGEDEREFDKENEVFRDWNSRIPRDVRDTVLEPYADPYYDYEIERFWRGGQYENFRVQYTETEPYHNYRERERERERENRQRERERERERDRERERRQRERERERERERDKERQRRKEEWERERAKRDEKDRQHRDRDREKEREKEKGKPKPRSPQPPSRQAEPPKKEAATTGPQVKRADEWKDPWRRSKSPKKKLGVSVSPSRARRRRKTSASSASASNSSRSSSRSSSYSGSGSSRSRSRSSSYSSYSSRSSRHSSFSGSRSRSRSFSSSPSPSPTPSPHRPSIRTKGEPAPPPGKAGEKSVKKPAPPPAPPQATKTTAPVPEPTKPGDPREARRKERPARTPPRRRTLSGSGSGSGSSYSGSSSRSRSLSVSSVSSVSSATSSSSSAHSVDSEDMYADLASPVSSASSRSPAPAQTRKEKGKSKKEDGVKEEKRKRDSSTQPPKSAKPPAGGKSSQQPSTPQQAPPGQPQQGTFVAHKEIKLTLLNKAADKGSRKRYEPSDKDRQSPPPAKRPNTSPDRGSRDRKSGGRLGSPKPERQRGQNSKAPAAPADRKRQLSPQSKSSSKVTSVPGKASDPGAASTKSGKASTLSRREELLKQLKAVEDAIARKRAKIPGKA
Assay: EMSA; cold competition and anti-S-tag supershift confirm; EMSA: 20 mM Tris-HCl pH 8.0, 50 mM NaCl, 1 mM MgCl2, 5 mg/ml BSA, 1 mM DTT, 20 min at room temperature; 5% native gel, 0.25x TBE, 4 °C
Details: protein: recombinant; C-terminal 6xHis; label: 32P 5' end; duplex of complementary 50-mers

B1: E2FA/BWT (dsDNA)
DNA 1: TAGCCCCTTGGTTTCCGTGGCAACGGAAAAGCGCGGGAATTACAGATAAA
DNA 2: TTTATCTGTAATTCCCGCGCTTTTCCGTTGCCACGGAAACCAAGGGGCTA
B1: binds.
